{"source": "the supplement of paper PMC11316812", "key": {"[1]": {"tested_on": "MCF7", "experiment": "percentage of EdU-negative (G0-arrested) nuclei per well, 72 h; higher = more G0 arrest", "conditions": "reference: sequence is the full UniProt precursor, the tested protein was the secreted form or ectodomain"}, "[2]": {"tested_on": "hTERT-HMEC", "experiment": "percentage of EdU-negative (G0-arrested) nuclei per well, 72 h; higher = more G0 arrest", "conditions": "reference: sequence is the full UniProt precursor, the tested protein was the secreted form or ectodomain"}, "[3]": {"conditions": "protein concentration 0.0153175 µM"}, "[4]": {"conditions": "protein concentration 0.153175 µM"}, "[5]": {"conditions": "protein concentration 0.03125 µM"}, "[6]": {"conditions": "protein concentration 0.3125 µM"}, "[7]": {"conditions": "protein concentration 0.03092 µM"}, "[8]": {"conditions": "protein concentration 0.3092 µM"}, "[9]": {"conditions": "protein concentration 0.019635 µM"}, "[10]": {"conditions": "protein concentration 0.19635 µM"}, "[11]": {"conditions": "protein concentration 0.0255 µM"}, "[12]": {"conditions": "protein concentration 0.0070625 µM"}, "[13]": {"conditions": "protein concentration 0.070625 µM"}, "[14]": {"conditions": "protein concentration 0.0225 µM"}}, "note": "± gives the standard deviation of the averaged measurements.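 Note: secreted proteins added to cultured cells, EdU pulse at the end, nuclei found by Hoechst imaging, EdU status from nuclear versus surrounding ring intensity ratio, PBS as neutral control.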", "data": [{"sequence": "MSPNFKLQCHFILIFLTALRGESRYLELREAADYDPFLLFSANLKRELAGEQPYRRALRCLDMLSLQGQFTFTADRPQLHCAAFFISEPEEFITIHYDQVSIDCQGGDFLKVFDGWILKGEKFPSSQDHPLPSAERYIDFCESGLSRRSIRSSQNVAMIFFRVHEPGNGFTLTIKTDPNLFPCNVISQTPNGKFTLVVPHQHRNCSFSIIYPVVIKISDLTLGHVNGLQLKKSSAGCEGIGDFVELLGGTGLDPSKMTPLADLCYPFHGPAQMKVGCDNTVVRMVSSGKHVNRVTFEYRQLEPYELENPNGNSIGEFCLSGL", "values": [{"measurement": "percentage of EdU-negative", "setting": "[1]; [3]", "result": "25.7 ± 1.4", "unit": "%"}, {"measurement": "percentage of EdU-negative", "setting": "[1]; [4]", "result": "28.3 ± 0.6", "unit": "%"}, {"measurement": "percentage of EdU-negative", "setting": "[2]; [3]", "result": "5.2 ± 0.25", "unit": "%"}, {"measurement": "percentage of EdU-negative", "setting": "[2]; [4]", "result": "6.58 ± 0.22", "unit": "%"}]}, {"sequence": "MKLAVTLTLVTLALCCSSASAEICPSFQRVIETLLMDTPSSYEAAMELFSPDQDMREAGAQLKKLVDTLPQKPRESIIKLMEKIAQSSLCN", "values": [{"measurement": "percentage of EdU-negative", "setting": "[1]; [5]", "result": "22.8 ± 2.1", "unit": "%"}, {"measurement": "percentage of EdU-negative", "setting": "[1]; [6]", "result": "24.6 ± 0.57", "unit": "%"}, {"measurement": "percentage of EdU-negative", "setting": "[2]; [5]", "result": "4.77 ± 0.77", "unit": "%"}, {"measurement": "percentage of EdU-negative", "setting": "[2]; [6]", "result": "4.91 ± 0.97", "unit": "%"}]}, {"sequence": "MHSFPPLLLLLFWGVVSHSFPATLETQEQDVDLVQKYLEKYYNLKNDGRQVEKRRNSGPVVEKLKQMQEFFGLKVTGKPDAETLKVMKQPRCGVPDVAQFVLTEGNPRWEQTHLTYRIENYTPDLPRADVDHAIEKAFQLWSNVTPLTFTKVSEGQADIMISFVRGDHRDNSPFDGPGGNLAHAFQPGPGIGGDAHFDEDERWTNNFREYNLHRVAAHELGHSLGLSHSTDIGALMYPSYTFSGDVQLAQDDIDGIQAIYGRSQNPVQPIGPQTPKACDSKLTFDAITTIRGEVMFFKDRFYMRTNPFYPEVELNFISVFWPQLPNGLEAAYEFADRDEVRFFKGNKYWAVQGQNVLHGYPKDIYSSFGFPRTVKHIDAALSEENTGKTYFFVANKYWRYDEYKRSMDPGYPKMIAHDFPGIGHKVDAVFMKDGFFYFFHGTRQYKFDPKTKRILTLQKANSWFNCRKN", "values": [{"measurement": "percentage of EdU-negative", "setting": "[1]; [7]", "result": "24.3 ± 3.2", "unit": "%"}, {"measurement": "percentage of EdU-negative", "setting": "[1]; [8]", "result": "26.43 ± 0.08", "unit": "%"}, {"measurement": "percentage of EdU-negative", "setting": "[2]; [7]", "result": "4.22 ± 0.79", "unit": "%"}, {"measurement": "percentage of EdU-negative", "setting": "[2]; [8]", "result": "6.403 ± 0.048", "unit": "%"}]}, {"sequence": "MGILSFLPVLATESDWADCKSPQPWGHMLLWTAVLFLAPVAGTPAAPPKAVLKLEPQWINVLQEDSVTLTCRGTHSPESDSIQWFHNGNLIPTHTQPSYRFKANNNDSGEYTCQTGQTSLSDPVHLTVLSEWLVLQTPHLEFQEGETIVLRCHSWKDKPLVKVTFFQNGKSKKFSRSDPNFSIPQANHSHSGDYHCTGNIGYTLYSSKPVTITVQAPSSSPMGIIVAVVTGIAVAAIVAAVVALIYCRKKRISALPGYPECREMGETLPEKPANPTNPDEADKVGAENTITYSLLMHPDALEEPDDQNRI", "values": [{"measurement": "percentage of EdU-negative", "setting": "[1]; [9]", "result": "25 ± 1.1", "unit": "%"}, {"measurement": "percentage of EdU-negative", "setting": "[1]; [10]", "result": "25.9 ± 1.6", "unit": "%"}, {"measurement": "percentage of EdU-negative", "setting": "[2]; [9]", "result": "4.58 ± 0.074", "unit": "%"}, {"measurement": "percentage of EdU-negative", "setting": "[2]; [10]", "result": "5.06 ± 0.42", "unit": "%"}]}, {"sequence": "MALPFALLMALVVLSCKSSCSLDCDLPQTHSLGHRRTMMLLAQMRRISLFSCLKDRHDFRFPQEEFDGNQFQKAEAISVLHEVIQQTFNLFSTKDSSVAWDERLLDKLYTELYQQLNDLEACVMQEVWVGGTPLMNEDSILAVRKYFQRITLYLTEKKYSPCAWEVVRAEIMRSFSSSRNLQERLRRKE", "values": [{"measurement": "percentage of EdU-negative", "setting": "[1]; [11]", "result": "48.4 ± 2.7", "unit": "%"}, {"measurement": "percentage of EdU-negative", "setting": "[1]; protein concentration 0.255 µM", "result": "49.64 ± 0.2", "unit": "%"}, {"measurement": "percentage of EdU-negative", "setting": "[2]; [11]", "result": "15.8 ± 6.2", "unit": "%"}, {"measurement": "percentage of EdU-negative", "setting": "[2]; protein concentration 0.255 µM", "result": "27.4 ± 0.99", "unit": "%"}]}, {"sequence": "MGAARLLPNLTLCLQLLILCCQTQGENHPSPNFNQYVRDQGAMTDQLSRRQIREYQLYSRTSGKHVQVTGRRISATAEDGNKFAKLIVETDTFGSRVRIKGAESEKYICMNKRGKLIGKPSGKSKDCVFTEIVLENNYTAFQNARHEGWFMAFTRQGRPRQASRSRQNQREAHFIKRLYQGQLPFPNHAEKQKQFEFVGSAPTRRTKRTRRPQPLT", "values": [{"measurement": "percentage of EdU-negative", "setting": "[1]; [12]", "result": "26.1 ± 0.65", "unit": "%"}, {"measurement": "percentage of EdU-negative", "setting": "[1]; [13]", "result": "25.6 ± 3.5", "unit": "%"}, {"measurement": "percentage of EdU-negative", "setting": "[2]; [12]", "result": "4.842 ± 0.02", "unit": "%"}, {"measurement": "percentage of EdU-negative", "setting": "[2]; [13]", "result": "5.5 ± 0.25", "unit": "%"}]}, {"sequence": "MDSYLLMWGLLTFIMVPGCQAELCDDDPPEIPHATFKAMAYKEGTMLNCECKRGFRRIKSGSLYMLCTGNSSHSSWDNQCQCTSSATRNTTKQVTPQPEEQKERKTTEMQSPMQPVDQASLPGHCREPPPWENEATERIYHFVVGQMVYYQCVQGYRALHRGPAESVCKMTHGKTRWTQPQLICTGEMETSQFPGEEKPQASPEGRPESETSCLVTTTDFQIQTEMAATMETSIFTTEYQVAVAGCVFLLISVLLLSGLTWQRRQRKSRRTI", "values": [{"measurement": "percentage of EdU-negative", "setting": "[1]; [14]", "result": "24.6 ± 0.99", "unit": "%"}, {"measurement": "percentage of EdU-negative", "setting": "[1]; protein concentration 0.225 µM", "result": "25.4 ± 1.9", "unit": "%"}, {"measurement": "percentage of EdU-negative", "setting": "[2]; [14]", "result": "4.53 ± 0.75", "unit": "%"}, {"measurement": "percentage of EdU-negative", "setting": "[2]; protein concentration 0.225 µM", "result": "7.02 ± 0.61", "unit": "%"}]}, {"sequence": "MEESVVRPSVFVVDGQTDIPFTRLGRSHRRQSCSVARVGLGLLLLLMGAGLAVQGWFLLQLHWRLGEMVTRLPDGPAGSWEQLIQERRSHEVNPAAHLTGANSSLTGSGGPLLWETQLGLAFLRGLSYHDGALVVTKAGYYYIYSKVQLGGVGCPLGLASTITHGLYKRTPRYPEELELLVSQQSPCGRATSSSRVWWDSSFLGGVVHLEAGEKVVVRVLDERLVRLRDGTRSYFGAFMV", "values": [{"measurement": "percentage of EdU-negative", "setting": "[1]; protein concentration 0.012 µM", "result": "23.7 ± 1.9", "unit": "%"}, {"measurement": "percentage of EdU-negative", "setting": "[1]; protein concentration 0.12 µM", "result": "25.5 ± 0.62", "unit": "%"}, {"measurement": "percentage of EdU-negative", "setting": "[2]; protein concentration 0.012 µM", "result": "6.38 ± 0.16", "unit": "%"}, {"measurement": "percentage of EdU-negative", "setting": "[2]; protein concentration 0.12 µM", "result": "15.2 ± 1.9", "unit": "%"}]}]}
